Assay results taken from US20110038791.

Columns and labels:
[1] = test system: Six1 + Eya2 Eya domain (ED) complex; experiment: FP; details: DMSO no effect
[2] = test system: Six1, near full-length (natural degradation product ending at residue 259); experiment: FP; details: 28 kD Six1 with 10 kD fluorescein DNA, single cuvette
[3] = test system: Six1, near full-length (natural degradation product ending at residue 259); experiment: EMSA; details: preliminary estimate
[4] = test system: Six1 + Eya2 Eya domain (ED) complex; experiment: EMSA; details: addition of Eya ED increases affinity
Six1, full-length = molecular target: T1, Six1, full-length (UniProt Q15475); experiment: EMSA; details: Six1 alone
T1 sequence: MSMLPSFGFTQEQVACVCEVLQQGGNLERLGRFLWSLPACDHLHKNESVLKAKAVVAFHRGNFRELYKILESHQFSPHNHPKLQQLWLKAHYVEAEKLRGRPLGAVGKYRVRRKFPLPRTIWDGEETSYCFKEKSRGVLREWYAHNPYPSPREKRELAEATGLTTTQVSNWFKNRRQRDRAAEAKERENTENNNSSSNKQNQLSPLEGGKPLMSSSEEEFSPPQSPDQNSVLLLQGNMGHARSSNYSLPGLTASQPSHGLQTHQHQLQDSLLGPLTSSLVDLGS

5'-fluorescein 16 nt MEF3 dsDNA
binding (fold increase in anisotropy) [1]: 3 | binding (fold increase in polarization) [2]: > 4

16 nt DNA containing MEF3 motif
Kd [3]: 1000 nM

18 nt dsDNA containing MEF3 site
Kd [4]: 300 nM | Kd (Six1, full-length): 1000 nM
